Measured values reported in patent US9766245B2, “Method of detecting cancer based on glycan biomarkers” (California Institute of Technology, priority 2013, dated 2017).
“Also recorded” adds a separate entry of the source.

Tested on: glycosylated synapsin I
Assay: Lectin affinity chromatography with UEAI
Assay type: binding, rat
Details: olfactory bulb lysate (500 μg), Western blotting
Experimental: Lectin Affinity Chromatography with UEAI.
UEAI lectin conjugated to agarose (Vector Laboratories) or control protein A conjugated to agarose (Vector Laboratories) was packed into a minicolumn (50 μL bed volume; Bio-Rad), and the columns were run in parallel. The resin was equilibrated with 10 column volumes of lectin binding buffer (100 mM Tris pH 7.5, 150 mM NaCl, 1 mM CaCl2, 1 mM MgCl2, 0.5% NP-40, and 0.2% sodium deoxycholate supplemented with EDTA-free Complete™ protease inhibitors). Olfactory bulb tissue from P3 rat pups was lysed in lectin binding buffer by sonication on ice. The lysate was clarified by centrifugation at 12000×g for 10 min, and the total protein concentration was determined using the BCA protein assay (Pierce). Lysate (500 μg) was bound batch-wise with gentle end-over-end mixing at rt for 4 h. The agarose was then allowed to settle, and the flow-through was passed over the column three additional times. The columns were washed with 40 column volumes of lectin binding buffer, followed by 10 column volumes of lectin binding buffer lacking detergent. […] Following concentration, samples were boiled in 1× sample buffer (35 μL of 200 mM Tris pH 6.8, 400 mM DTT, 8% SDS, 0.2% bromophenol blue, and 40% glycerol) and analyzed by SDS-PAGE and western blotting as described above. Synapsin I was detected using mouse anti-synapsin I ascites (Synaptic Systems) at 0.1 μg/mL.

B1: UEAI: lectin conjugated to agarose used for affinity chromatography (protein)
chain: SDDLSFKFKNFSQNGKDLSFQGDASVIETGVLQLNKVGNNLPDETGGIARYIAPIHIWNCNTGEVASFITSFSFFMETSANPKAATDGLTFFLAPPDSPLRRAGGYFGLFEDTKDNDSSYQTVAVEFDTIGSPVNFDDPGFPHIGIDVNRVKSINAERWNKRYGLNNVANVEIIYEASSKTLTASLTYPSDQTSISVTSIVDLKEILPEWVSVGFSGGTYIGRQATHEVLNWYFTSNLINTNS
In the case of B1, the “capture and detection of glycosylated synapsin I” value is reported as “failed to pull-down and detect glycosylated synapsin I; also recorded: failed to capture and detect glycosylated synapsin I”.
